Results taken from patent US20030144481A1.
Each block holds one substance with its values, some of them ahead of it.

Assays:
[1] = molecular target: αvβ3 integrin on C-PAE cells (bovine) (UniProt P80746); test: C-PAE attachment to Tum-1-coated plates
[2] = molecular target: αvβ3 integrin on C-PAE cells (bovine) (UniProt P80746); test: C-PAE attachment to Tum-2-coated plates
[3] = molecular target: αvβ3 integrin on HUVEC cells (human) (UniProt P06756); test: HUVEC attachment to Tumstatin-coated plates; anti-αvβ3 and anti-β1 antibodies used together
Chain of αvβ3 integrin on HUVEC cells (human) (P06756 31-1048, chain 1 of 2): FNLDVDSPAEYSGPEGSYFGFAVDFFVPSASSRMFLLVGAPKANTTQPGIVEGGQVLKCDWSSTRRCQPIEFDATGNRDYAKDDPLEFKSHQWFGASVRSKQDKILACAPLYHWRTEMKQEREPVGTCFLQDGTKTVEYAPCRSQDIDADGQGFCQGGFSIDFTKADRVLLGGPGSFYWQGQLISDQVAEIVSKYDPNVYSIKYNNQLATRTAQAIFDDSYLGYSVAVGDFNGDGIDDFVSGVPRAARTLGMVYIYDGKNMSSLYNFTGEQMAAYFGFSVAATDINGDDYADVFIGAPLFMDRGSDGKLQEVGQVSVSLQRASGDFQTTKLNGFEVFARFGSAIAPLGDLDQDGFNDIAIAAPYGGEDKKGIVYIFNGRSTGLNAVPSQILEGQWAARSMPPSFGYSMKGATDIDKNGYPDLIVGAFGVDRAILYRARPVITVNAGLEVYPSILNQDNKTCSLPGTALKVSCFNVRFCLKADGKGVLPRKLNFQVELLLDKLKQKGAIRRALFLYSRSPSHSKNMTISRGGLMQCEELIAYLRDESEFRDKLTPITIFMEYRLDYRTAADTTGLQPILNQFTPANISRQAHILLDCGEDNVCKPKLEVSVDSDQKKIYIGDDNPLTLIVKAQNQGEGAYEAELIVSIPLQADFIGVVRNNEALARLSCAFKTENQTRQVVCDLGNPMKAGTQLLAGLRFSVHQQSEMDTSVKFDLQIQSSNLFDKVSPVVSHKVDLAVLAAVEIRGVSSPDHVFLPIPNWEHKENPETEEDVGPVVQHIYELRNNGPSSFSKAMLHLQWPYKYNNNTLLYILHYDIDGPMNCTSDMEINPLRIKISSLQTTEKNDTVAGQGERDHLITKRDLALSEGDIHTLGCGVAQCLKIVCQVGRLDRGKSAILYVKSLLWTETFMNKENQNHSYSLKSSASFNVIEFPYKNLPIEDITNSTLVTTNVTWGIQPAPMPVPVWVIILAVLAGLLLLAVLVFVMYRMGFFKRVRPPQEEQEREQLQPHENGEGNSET
Chain of αvβ3 integrin on HUVEC cells (human) (P05106 27-788, chain 2 of 2, further chain): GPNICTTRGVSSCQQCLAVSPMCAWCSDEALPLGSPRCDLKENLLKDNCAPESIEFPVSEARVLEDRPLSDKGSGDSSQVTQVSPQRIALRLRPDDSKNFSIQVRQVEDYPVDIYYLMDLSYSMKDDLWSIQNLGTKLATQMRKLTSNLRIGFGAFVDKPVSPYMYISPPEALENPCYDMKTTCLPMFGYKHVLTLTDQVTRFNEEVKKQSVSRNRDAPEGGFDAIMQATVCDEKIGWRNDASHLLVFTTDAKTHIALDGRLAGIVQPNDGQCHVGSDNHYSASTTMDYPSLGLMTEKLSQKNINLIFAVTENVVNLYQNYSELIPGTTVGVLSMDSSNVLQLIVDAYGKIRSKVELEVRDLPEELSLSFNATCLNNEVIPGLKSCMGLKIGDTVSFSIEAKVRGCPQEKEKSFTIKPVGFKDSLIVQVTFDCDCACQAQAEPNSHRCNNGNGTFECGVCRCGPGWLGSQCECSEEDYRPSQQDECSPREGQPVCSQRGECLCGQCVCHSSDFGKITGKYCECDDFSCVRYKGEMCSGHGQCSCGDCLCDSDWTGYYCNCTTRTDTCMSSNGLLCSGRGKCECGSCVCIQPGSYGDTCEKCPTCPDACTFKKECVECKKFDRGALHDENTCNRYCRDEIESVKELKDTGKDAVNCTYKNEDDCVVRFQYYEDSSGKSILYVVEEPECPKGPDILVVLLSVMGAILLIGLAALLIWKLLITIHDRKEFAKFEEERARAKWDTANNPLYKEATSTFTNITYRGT

[4] = molecular target: αvβ3 integrin on C-PAE cells (bovine) (UniProt P80746); test: C-PAE attachment to Tum-4-coated plates
[5] = molecular target: αvβ3 integrin on HUVEC cells (human) (UniProt P06756); test: HUVEC adhesion to collagen Type IV-coated plates; 10 µg/ml antibody
[6] = molecular target: αvβ3 integrin on HUVEC cells (human) (UniProt P06756); test: HUVEC attachment to Tumstatin-coated plates; 10 µg/ml antibody; against control IgG
[7] = molecular target: αvβ3 integrin on HUVEC cells (human) (UniProt P06756); test: cell binding to vitronectin-coated plates; 10 µg/ml antibody
[8] = molecular target: αvβ3 integrin on HUVEC cells (human) (UniProt P06756); test: HUVEC attachment to plates coated with E. coli Tumstatin-45-132; 10 µg/ml antibody
[9] = molecular target: integrin β1 subunit on HUVEC cells (human) (UniProt P05556); test: HUVEC adhesion to collagen Type IV-coated plates; 10 µg/ml antibody
Chain of integrin β1 subunit on HUVEC cells (human) (P05556 21-798): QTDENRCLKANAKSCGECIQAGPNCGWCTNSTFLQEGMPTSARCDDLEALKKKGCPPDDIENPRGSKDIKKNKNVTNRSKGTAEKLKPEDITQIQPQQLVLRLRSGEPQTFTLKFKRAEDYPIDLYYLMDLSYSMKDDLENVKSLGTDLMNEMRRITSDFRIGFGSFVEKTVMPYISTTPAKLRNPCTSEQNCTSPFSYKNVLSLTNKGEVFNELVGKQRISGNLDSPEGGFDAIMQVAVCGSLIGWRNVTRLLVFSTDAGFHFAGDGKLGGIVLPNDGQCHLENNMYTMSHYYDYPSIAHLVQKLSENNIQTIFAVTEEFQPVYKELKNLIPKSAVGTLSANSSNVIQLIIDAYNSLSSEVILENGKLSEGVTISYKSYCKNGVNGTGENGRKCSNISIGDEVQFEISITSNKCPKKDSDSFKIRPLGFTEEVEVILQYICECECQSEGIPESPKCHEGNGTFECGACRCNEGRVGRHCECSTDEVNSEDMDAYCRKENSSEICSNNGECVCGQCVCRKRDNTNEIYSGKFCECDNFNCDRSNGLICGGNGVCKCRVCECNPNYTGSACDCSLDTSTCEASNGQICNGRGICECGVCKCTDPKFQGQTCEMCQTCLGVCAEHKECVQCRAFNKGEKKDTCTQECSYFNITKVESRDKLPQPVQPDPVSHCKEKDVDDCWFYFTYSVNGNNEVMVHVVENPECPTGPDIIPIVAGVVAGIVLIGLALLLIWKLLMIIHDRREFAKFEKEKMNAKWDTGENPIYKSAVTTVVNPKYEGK

[10] = molecular target: integrin β1 subunit on HUVEC cells (human) (UniProt P05556); test: HUVEC attachment to Tumstatin-coated plates; 10 µg/ml antibody; against control IgG
[11] = molecular target: integrin β1 subunit on HUVEC cells (human) (UniProt P05556); test: cell binding to type IV collagen-coated plates; 10 µg/ml antibody; against control IgG
[12] = molecular target: integrin β1 subunit on HUVEC cells (human) (UniProt P05556); test: HUVEC attachment to plates coated with E. coli Tumstatin-45-132; 10 µg/ml antibody
[13] = molecular target: integrin β1 subunit on HUVEC cells (human) (UniProt P05556); test: HUVEC adhesion to Arresten-coated plates; 10 µg/ml antibody; blocked pair Arresten / integrin β1
[14] = molecular target: human αvβ3 protein (CHEMICON International), soluble (human) (UniProt P06756); test: cell-based or functional assay

Chain of αvβ3 integrin on C-PAE cells (bovine) (P80746 31-1048): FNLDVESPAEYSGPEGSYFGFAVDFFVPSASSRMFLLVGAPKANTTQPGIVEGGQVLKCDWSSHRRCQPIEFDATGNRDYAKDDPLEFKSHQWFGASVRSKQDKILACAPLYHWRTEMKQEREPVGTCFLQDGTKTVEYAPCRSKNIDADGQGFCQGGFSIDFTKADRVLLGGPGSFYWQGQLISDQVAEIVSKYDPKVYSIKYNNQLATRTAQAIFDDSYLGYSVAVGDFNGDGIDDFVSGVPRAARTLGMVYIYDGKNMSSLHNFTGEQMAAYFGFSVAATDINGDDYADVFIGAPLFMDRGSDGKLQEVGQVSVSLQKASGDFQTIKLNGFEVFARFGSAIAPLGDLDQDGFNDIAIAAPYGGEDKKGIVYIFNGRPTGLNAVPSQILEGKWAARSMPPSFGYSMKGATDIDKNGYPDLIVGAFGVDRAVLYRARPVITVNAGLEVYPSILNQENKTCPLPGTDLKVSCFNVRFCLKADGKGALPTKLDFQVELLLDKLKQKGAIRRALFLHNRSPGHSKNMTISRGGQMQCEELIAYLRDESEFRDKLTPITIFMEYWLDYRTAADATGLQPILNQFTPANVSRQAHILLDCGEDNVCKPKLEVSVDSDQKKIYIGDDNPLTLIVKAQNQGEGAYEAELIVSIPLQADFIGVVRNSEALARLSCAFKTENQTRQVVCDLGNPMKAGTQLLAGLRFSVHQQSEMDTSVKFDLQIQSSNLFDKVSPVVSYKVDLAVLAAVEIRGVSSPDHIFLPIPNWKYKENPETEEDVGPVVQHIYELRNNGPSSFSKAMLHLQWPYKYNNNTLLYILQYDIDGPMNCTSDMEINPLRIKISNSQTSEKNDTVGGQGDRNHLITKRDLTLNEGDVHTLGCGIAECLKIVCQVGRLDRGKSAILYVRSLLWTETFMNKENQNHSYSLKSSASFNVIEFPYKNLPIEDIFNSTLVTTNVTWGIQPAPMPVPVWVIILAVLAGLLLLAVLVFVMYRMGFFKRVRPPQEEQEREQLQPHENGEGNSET

% inhibition of cell attachment [1]: 55.9% | % inhibition of cell attachment [2]: 69.8% | % inhibition of cell attachment [3]: 91% | % inhibition of cell attachment [4]: 62.6% | % inhibition of cell adhesion [5]: 15% | % inhibition of cell attachment [6]: 80% | % inhibition of cell binding [7]: 61% | % inhibition of cell attachment [8]: 47.1%
Substance: monoclonal antibody to αvβ3 integrin (clone LM609, CHEMICON International)

% inhibition of cell adhesion [9]: 40% | % inhibition of cell attachment [10]: 54% | % inhibition of cell binding [11]: 53% | % inhibition of cell attachment [12]: 47.5% | % inhibition of cell adhesion [13]: 70%
Substance: mouse monoclonal antibody to the human β1 integrin (clone P4C10, Life Technologies/Gibco BRL)

recovery of the anti-proliferative effect on WM-164 melanoma cells (methylene blue) [14]: 76.7%
Substance: Tum-4 (from UniProt Q01955 1607-1670) (ligand)

recovery of the anti-proliferative effect on C-PAE cells (methylene blue) [14]: 74.1%
Substance: Tum-2 (from UniProt Q01955 1427-1558) (ligand)
